The values below come from patent US20240092930A1 (MABWELL SHANGHAI BIOSCIENCE, published 2024).

As a reminder, the EC50 is the midpoint of the concentration-response curve. As usually defined, the Kd is the equilibrium constant for the complex coming apart. As a reminder, the koff is the first-order rate constant of dissociation. What is called kon is a measure of how fast the partners come together.

For experiment [1], the target named is T1, human Trop-2 on the surface of cells (CHO/Trop-2 cells; BxPC-3 cells; NCI-N87 cells) (human, UniProt P09758 27-323).
T1 sequence (looked up): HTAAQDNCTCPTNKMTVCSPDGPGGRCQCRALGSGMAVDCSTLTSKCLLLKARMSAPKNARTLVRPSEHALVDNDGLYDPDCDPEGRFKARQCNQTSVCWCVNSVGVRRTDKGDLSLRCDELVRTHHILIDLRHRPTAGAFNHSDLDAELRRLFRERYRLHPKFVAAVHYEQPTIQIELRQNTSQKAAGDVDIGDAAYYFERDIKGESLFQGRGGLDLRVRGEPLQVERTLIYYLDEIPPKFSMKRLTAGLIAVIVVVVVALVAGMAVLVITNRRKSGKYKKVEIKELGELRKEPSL
Briefly: cell-based or functional assay.

The target of experiment [2] is T2, recombinant human Trop-2-his protein (ACCESSION NO.: NP_002344.2, AA 1-274) (human, UniProt P09758 27-274).
T2 construct: range 27-274; also called recombinant human Trop-2 protein; recombinant human Trop-2 extracellular domain; not shown: his tag
T2 sequence (looked up): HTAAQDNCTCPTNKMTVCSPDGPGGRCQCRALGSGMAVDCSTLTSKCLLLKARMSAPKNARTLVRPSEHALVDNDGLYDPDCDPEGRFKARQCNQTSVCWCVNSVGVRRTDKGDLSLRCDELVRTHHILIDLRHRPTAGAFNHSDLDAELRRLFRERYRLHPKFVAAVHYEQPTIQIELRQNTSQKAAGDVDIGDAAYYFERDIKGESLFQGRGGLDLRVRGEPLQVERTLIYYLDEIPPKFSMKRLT
Briefly: ELISA, coated human Trop-2-his 1 µg/ml. As for the experimental part: (§1) Washed with PBS 3 times, the plates were blocked with the added 5% BSA PBS at 37° C. for 60 min, and then washed 3 times with PBST. Different concentrations of h23-12 (serial dilutions of 14 concentrations obtained through 3-fold serially diluting a solution with an initial concentration of 10 μg/ml), h4-3 (serial dilutions of 12 concentrations obtained through 3-fold serially diluting a solution with an initial concentration of 3 μg/ml), and Sacituzumab (serial dilutions of 12 concentrations obtained through 3-fold serially diluting a solution with an initial concentration of 3 μg/ml) were added into the plates, with each concentration provided in a parallel well. The plates were incubated at 37° C. for 60 min, and then were washed 4 times with PBST. 1:5000 dilution of H1RP-anti-human Fc (Cat.: 109-035-098, Jackson ImmunoResearch) was added into the plates for incubation at 37° C. for 30 min. Afterwards, the plates were washed with PBST 4 times, and TMB substrate was added for color development at 37° C. for 10 min. Then 2M HCl was added to stop reaction; and absorbances at 450 nm and at 630 nm (as reference wavelength) were read, and A450 nm-630 nm values of the wells in the plates were recorded.

In experiment [3] the target is T3, recombinant cynomolgus Trop-2-his protein (ACCESSION NO.: UniProtKB-A0A2K5UE71, AA 1-272) (cynomolgus, UniProt A0A2K5UE71 1-272).
T3 construct: The printed range begins at residue 1; not shown: his tag
T3 sequence: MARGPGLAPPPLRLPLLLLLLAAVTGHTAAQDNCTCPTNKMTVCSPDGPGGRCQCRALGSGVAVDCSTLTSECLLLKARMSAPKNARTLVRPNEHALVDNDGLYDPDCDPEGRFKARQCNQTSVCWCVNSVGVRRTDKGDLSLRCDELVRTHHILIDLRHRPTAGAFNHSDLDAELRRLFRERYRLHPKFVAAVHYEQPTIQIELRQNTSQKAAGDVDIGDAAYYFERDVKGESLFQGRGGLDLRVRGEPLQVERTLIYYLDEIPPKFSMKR
Briefly: ELISA, coated cynomolgus Trop-2-his 1 µg/ml. As for the experimental part: as §1
A general note: An ELISA detects its analyte on a solid surface through an enzyme-linked reagent.

Experiment [4] concerns the target T2, recombinant human Trop-2-his protein …. Briefly: BLI, antibody on AHC sensor, Trop-2-his 60 nM.
Experiment [5] has the same target. Briefly: BLI, antibody on AHC sensor, Trop-2-his 23, 30, 45, 75 nM. As for the experimental part: Affinities of the antibodies were determined by an assay including capturing Fc fragments of the antibodies with anti-human IgG Fc capture (AHC) biosensors using Octet QKe system instrument from Fortebio.
For the assay, each of the antibodies (h23-12, h4-3, and control antibody Sacituzumab) was diluted to 4 μg/ml in PBS, and was allowed to flow through the surface of an AHC biosensor (Cat.: 18-0015, PALL) for 120 s. Recombinant human Trop-2-his protein (ACCESSION NO.: NP_002344.2, AA 1-274) was used as a mobile phase. The Trop-2-his protein was used in following concentrations which corresponded to different antibodies: in case of h23-12, the Trop-2 was used in concentrations of 23, 30, 45, and 75 nM; in case of h4-3, it was used in concentrations of 23, 30, 45, and 60 nM; and in case of Sacituzumab, it was used in concentrations of 23, 30, 45, and 75 nM. The binding time was 100 s and the dissociation time was 300 s. When the assay was finished, data from which the response values of blank control had been deducted were fitted to a 1:1 Langmuir binding model using software, and then kinetic constants for antigen-antibody binding were calculated.
Background: BLI is a label-free optical method that tracks binding on a fibre tip over time.

B1: Sacituzumab (antibody, human IgG1, kappa, V domains shown)
VH: QVQLQQSGSELKKPGASVKVSCKASGYTFTNYGMNWVKQAPGQGLKWMGWINTYTGEPTYTDDFKGRFAFSLDTSVSTAYLQISSLKADDTAVYFCARGGFGSSYWYFDVWGQGSLVTVSS
VL: DIQLTQSPSSLSASVGDRVSITCKASQDVSIAVAWYQQKPGKAPKLLIYSASYRYTGVPDRFSGSGSGTDFTLTISSLQPEDFAVYYCQQHYITPLTFGAGTKVEIKR
notes: expressed in HEK293; also called control antibody Sacituzumab; Saituzumab
As to B1, in experiment [1], the “Internalization percentage (%), 1 h, BxPC-3 cells, FACS” value was 17.2%; the “Internalization percentage (%), 3 h, BxPC-3 cells, FACS” value is 21.8%; the “Internalization percentage (%), 5 h, BxPC-3 cells, FACS” value was found to be 20.4%. Also, the half-maximal effective concentration (EC50) in experiment [2] was 0.0703 nM. The EC50 in experiment [3] is 0.0726 nM. Also, the Kd in experiment [4] was found to be 0.784 nM. Moreover, in experiment [5], the Kd amounted to 0.941 nM, the koff turned out to be 0.000194 s⁻¹ and the kon was found to be 208000 M⁻¹ s⁻¹.

B2: h23-12-25 (antibody, human IgG1, kappa, V domains shown)
VH: QVQLVQSGAEVKKPGASVKVSCKASGYTFTSYWMHWVRQAPGQGLEWMGEITPSDNYGSYNQKFKGRVTITRDTSTSTAYMELSSLRSEDTAVYYCARGHGNYVSFDYWGQGTLVTVSS
VL: DIQMTQSPSSLSASVGDRVTITCRASQDISNYLNWYQQKPGKAPKLLIYYTSRLESGVPSRFSGSGSGTDFTLTISSLQPEDFATYFCQQGYTLPPYTFGQGTKLEIKR
notes: also called h32-12
For the molecule B2, the EC50 in experiment [2] amounted to 0.0473 nM. For the same molecule, the EC50 in experiment [3] turned out to be 0.124 nM. Besides, in experiment [5], the Kd was determined as 0.64 nM, the koff was found to be 0.000114 s⁻¹ and the kon was 178000 M⁻¹ s⁻¹.
